We go through 5 molecules from paper PMC5216119, “An allosteric conduit facilitates dynamic multisite substrate recognition by the SCF^Cdc4 ubiquitin ligase” (Nature Communications, 2017).

Broadly, the Kd is a measure of binding affinity in units of concentration.

Numbering of substitutions follows the chain as printed. Like-named read-outs stand apart in the source and are kept apart here. Square brackets hold non-standard residues; d marks the D form. Ends that are not written are not given here. Peptide text beside a SMILES is read from it. pT = C[C@@H](OP(=O)(O)O)[C@H](N)C(=O)O; pS = N[C@@H](COP(=O)(O)O)C(=O)O

In assay [1] the target is T1, R664Q Cdc4^WD40 (Saccharomyces cerevisiae, UniProt P07834, R664Q).
T1 construct: Cdc4^WD40 (residues 367-744) was expressed from pET-Sumo (Invitrogen); His-SUMO (pET-Sumo vector) (N, cleaved yes); made in house; host or cells: Escherichia coli (host printed only for the NMR samples)
T1 sequence (P07834 367-744 R664Q): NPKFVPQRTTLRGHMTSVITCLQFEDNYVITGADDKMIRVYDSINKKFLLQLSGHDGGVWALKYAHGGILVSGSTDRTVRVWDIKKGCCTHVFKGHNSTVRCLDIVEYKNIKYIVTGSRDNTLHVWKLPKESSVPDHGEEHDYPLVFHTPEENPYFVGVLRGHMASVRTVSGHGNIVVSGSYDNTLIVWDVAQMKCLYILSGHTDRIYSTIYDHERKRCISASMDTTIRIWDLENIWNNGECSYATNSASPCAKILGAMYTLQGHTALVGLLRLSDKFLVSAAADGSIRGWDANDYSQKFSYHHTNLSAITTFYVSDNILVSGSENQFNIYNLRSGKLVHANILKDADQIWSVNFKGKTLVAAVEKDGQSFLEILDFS
The class given is binding, yeast. As to conditions: in vitro Trp fluorescence. Here is the method:
We assessed the contribution of the allosteric pocket to substrate interactions by mutation of positively charged Arg655 and Arg664 residues, both of which are required for SCF-I2 inhibition. We generated Arg655Gln and Arg664Gln substitution mutants to minimize disruptive steric effects on the allosteric pocket and WD40 domain.
The binding affinities of three different peptides (Sic1^20pS69, Sic1^20pS80 and Sic1^20pS69/S80) for wild-type and mutant (Arg664Gln) Cdc4^WD40 were measured by intrinsic Trp fluorescence-binding experiments. The measurements were carried out by using an ATF 105 spectrometer (AVIV Instruments, Lakewood, NJ) equipped with an automatic titrator. The binding of the peptide fragments were monitored by using intrinsic tryptophan fluorescence with an excitation wavelength of 298 nm and an emission wavelength of 366 nm. All measurements were performed in 50 mM Tris, 150 mM NaCl, 5 mM DTT, pH 7.5 at 20 °C. The concentration of Cdc4 was 0.5 μM for all measurements. […] Association constants were calculated using the formula Ka=1/Kd. Prism 4.0 software (GraphPad Software, San Diego, CA) was used for statistical analysis (non-paired Student t test), and P values <0.05 were considered significant. Each experiment was repeated at least three times.

Assay [2] concerns the target T2, R655Q Cdc4^WD40 (Saccharomyces cerevisiae, UniProt P07834, R655Q).
T2 construct: Cdc4^WD40 (residues 367-744) was expressed from pET-Sumo (Invitrogen); His-SUMO (pET-Sumo vector) (N, cleaved yes); made in house; host or cells: Escherichia coli (host printed only for the NMR samples)
The assay is described as follows: Intrinsic Trp fluorescence binding, R655Q Cdc4^WD40. The arrangement: species or system yeast. Conditions: in vitro Trp fluorescence.

Assay [3] deals with T3, R655Q Cdc4^WD40 (yeast, UniProt P07834 367-744, R655Q).
T3 construct: Cdc4, yeast F-box protein, WD40 domain, residues 367-744, with Arg655Gln in the allosteric pocket; also called Arg655Gln Cdc4^WD40; source: E. coli, purified as the wild type (Ni-NTA, Ulp protease, Ni-NTA, Superdex 200)
T3 sequence (looked up): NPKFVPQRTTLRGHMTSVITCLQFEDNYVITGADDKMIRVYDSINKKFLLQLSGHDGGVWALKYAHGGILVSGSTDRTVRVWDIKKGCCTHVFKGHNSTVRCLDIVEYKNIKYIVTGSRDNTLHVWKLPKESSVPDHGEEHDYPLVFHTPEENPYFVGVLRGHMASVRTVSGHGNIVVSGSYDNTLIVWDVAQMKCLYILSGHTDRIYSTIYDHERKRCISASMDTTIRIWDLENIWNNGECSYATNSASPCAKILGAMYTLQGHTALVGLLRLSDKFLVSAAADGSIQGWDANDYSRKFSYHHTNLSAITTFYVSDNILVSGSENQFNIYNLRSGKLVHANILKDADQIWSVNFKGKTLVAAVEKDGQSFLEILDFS
Description: other fluorescence titration; intrinsic Trp fluorescence (excitation 298 nm, emission 366 nm); 0.5 μM Cdc4, ligand titrated; 50 mM Tris, 150 mM NaCl, 5 mM DTT, pH 7.5, 20 °C; 1:1 stoichiometry assumed.

Assay [4] has as its target Cdc4^WD40 (isolated WD40 domain of the yeast F-box protein Cdc4, residues 367-744), wild type (yeast) (UniProt P07834). The assay is described as above.
Assay [5] has as its target T4, R664Q Cdc4^WD40 (yeast, UniProt P07834 367-744, R664Q).
T4 construct: Cdc4, yeast F-box protein, WD40 domain, residues 367-744, with Arg664Gln in the allosteric pocket; also called Arg664Gln Cdc4^WD40; mutant (Arg664Gln) Cdc4^WD40; source: E. coli, purified as the wild type (Ni-NTA, Ulp protease, Ni-NTA, Superdex 200)
T4 sequence (looked up): T3 sequence (looked up) with Q289R, R298Q
The description is as above.

In another assay the target is Cdc4. As to conditions: Sic1 phosphorylated on between 4 and 6 low-affinity CPD sites; read-out: Kd of high-affinity Sic1-Cdc4 interaction; cited from earlier work. The source says:
WD40 domains, and the related Kelch β-propeller domains, mediate protein interactions in many contexts and together form the largest domain family in the human genome. WD40 domain proteins are a predominant class of substrate receptor in the ubiquitin-proteasome system, found in F-box proteins and other subunits of the cullin-RING (CRL) ubiquitin ligases. The WD40 domain of the yeast F-box protein Cdc4 (Cdc4^WD40) recognizes substrates via phosphorylated motifs termed Cdc4 phosphodegrons (CPDs). One of the best characterized Cdc4 substrates is the cyclin dependent kinase inhibitor ...

Assay [6] deals with T5, Cdc4^WD40 (isolated WD40 domain of the yeast F-box protein Cdc4, residues 367-744), wild type (yeast, UniProt P07834 367-744).
T5 construct: Cdc4, yeast F-box protein, WD40 domain, residues 367-744; For the NMR experiments the protein was U-[15N,2H], Ile-delta1-[13CH3], Met-epsilon-[13CH3] labelled (IM-labelled); also called wt Cdc4^WD40; Cdc4 WD40 domain; source: E. coli BL21(DE3) codonPlus, purified (Ni-NTA, Ulp protease, Ni-NTA, Superdex 200)
T5 sequence (looked up): T3 sequence (looked up) with Q289R
The assay is described as follows: NMR titration; 2D 13C-1H TROSY HMQC at 10 °C on 200 μM IM-labelled Cdc4^WD40 with increasing concentrations of unlabelled ligand; 100% D2O, 50 mM Na2HPO4 pH 8.0, 150 mM NaCl, 2 mM DTT. As to conditions: both partners purified.

For assay [7], the target named is T5, Cdc4^WD40 (isolated WD40 domain of the …). Description: other fluorescence titration; intrinsic Trp fluorescence (excitation 298 nm, emission 366 nm); 0.5 μM Cdc4, ligand titrated; 50 mM Tris, 150 mM NaCl, 5 mM DTT, pH 7.5, 20 °C; 1:1 stoichiometry assumed. As to conditions: both partners purified.
Assay [8] has as its target T4, R664Q Cdc4^WD40. Described as above. As to conditions: both partners purified.
Assay [9] has as its target T5, Cdc4^WD40 (isolated WD40 domain of the …). Description: ITC; 20 °C; cell 30 μM Cdc4^WD40, syringe 100 μM pSic1; 50 mM Na2HPO4 pH 7.2, 150 mM NaCl, 2 mM β-mercaptoethanol; single-site binding model. Conditions: both partners purified. In general terms: In ITC the heat of successive injections is recorded.
For a further assay, the target named is Cdc4-Skp1. Conditions: read-out: Kd for pSic1-Cdc4-Skp1 by intrinsic tryptophan (Trp) fluorescence; cited from earlier work.

`CC(=O)NCC(=O)N[C@@H](CC(C)C)C(=O)N[C@@H](CC(C)C)C(=O)N[C@H](C(=O)N1CCC[C@H]1C(=O)N1CCC[C@H]1C(=O)N[C@@H](CCC(N)=O)C(=O)N[C@@H](CO)C(=O)NCC(N)=O)[C@@H](C)OP(=O)(O)O` [CycE] (Ac-GLL[pT]PPQSG-NH2; N-terminus and C-terminus assumed): at R664Q Cdc4^WD40 [1], the “change of affinity for Arg664Gln Cdc4^WD40 versus wild-type” value is “did not significantly reduce”. Also, on R655Q Cdc4^WD40 [2], the “change of affinity for Arg655Gln Cdc4^WD40 versus wild-type” value is “did not significantly reduce”.

As to “CycE phosphopeptide (singly phosphorylated high-affinity CPD peptide derived from cyclin E)”, the figures for the Kd (with R655Q Cdc4^WD40 [3]; in assay [4]; in the assay with R664Q Cdc4^WD40 [5]) were 2.9 µM, 2.21 µM and 1.47 µM, respectively.

B1: Sic1: cyclin dependent kinase inhibitor, Cdc4 substrate; here phosphorylated on 4 to 6 CPD sites (protein, UniProt P38634 1-284, looked up)
Protein SIC1: MTPSTPPRSRGTRYLAQPSGNTSSSALMQGQKTPQKPSQNLVPVTPSTTKSFKNAPLLAPPNSNMGMTSPFNGLTSPQRSPFPKSSVKRTLFQFESHDNGTVREEQEPLGRVNRILFPTQQNVDIDAAEEEEEGEVLLPPSRPTSARQLHLSLERDEFDQTHRKKIIKDVPGTPSDKVITFELAKNWNNNSPKNDARSQESEDEEDIIINPVRVGKNPFASDELVTQEIRNERKRAMLRENPDIEDVITYVNKKGEVVEKRRLTDEEKRRFKPKALFQSRDQEH
modifications: phosphorylated
notes: here phosphorylated on 4 to 6 CPD sites
On to B1, for which, on Cdc4, the equilibrium dissociation constant (Kd) is around 1 µM.

B2: Ash1^18pT286/pT290/pS294 triphosphopeptide (unlabelled) (peptide)
peptide: AWSI[pT]PPV[pT]PPM[pS]PPTNR
notes: Ash1 transcriptional repressor, 18-residue peptide printed as AWSIpTPPVpTPPMpSPPTNR; the text says derived from Ash1 residues 283-299; the unlabelled form was used for NMR; also called triply phosphorylated Ash1 peptide; the peptide phosphorylated on all three CPDs
As for B2, the binding result in [6] is reported as “binds”.

B3: pSic1 (N-terminal targeting region of Sic1, residues 1-90, phosphorylated to completion by Cln2-Cdc28-Cks1 kinase) (domain or fragment, yeast, UniProt P38634 1-90, looked up)
chain: MTPSTPPRSRGTRYLAQPSGNTSSSALMQGQKTPQKPSQNLVPVTPSTTKSFKNAPLLAPPNSNMGMTSPFNGLTSPQRSPFPKSSVKRT
modifications: phosphorylated to completion by Cln2-Cdc28-Cks1 kinase; contains 7 of the 9 Sic1 CPD sites (the residues are not listed)
notes: also called pSic1 (1-90); pSic1^1-90
On to B3, for which the Kd in assay [7] is 1.3 µM; in the assay with R664Q Cdc4^WD40 [8] it was 4.96 µM; with R655Q Cdc4^WD40 [3] (both partners purified) it was 4.16 µM; in [9], 0.8 ± 0.12 µM; at Cdc4-Skp1, 0.6 µM.
